Measured values as given in US20210277441A1, “METHOD OF SELECTING A POLYPEPTIDE OF INTEREST” (IMPERIAL COLLEGE INNOVATIONS LIMITED, priority 2018, published 2021).
Substitutions are numbered along the chain they refer to. In names and notes the source's numbering stands.

Experiments:
[1] = substrate: CC1=NCCC1; experiment: Kinetics of parental MsIRED, 2-methylpyrroline reduction with NADPH; format: biochemical, Myxococcus stipitatus; conditions: other: cofactor NADPH (0.25 mM); enzyme 1.2 uM
[2] = substrate: CC1=NCCC1; experiment: Kinetics of evolved MsIRED-s, 2-methylpyrroline reduction with NADH; format: biochemical, Myxococcus stipitatus; conditions: other: cofactor NADH (0.25 mM); enzyme 1.25 uM
[3] = substrate: CC(C)O; experiment: purified protein, by the assay type; format: biochemical, Clostridium beijerinckii; conditions: other: cofactor NADP+ (1 mM); enzyme 110 nM

B1: Myxococcus stipitatus imine reductase (MsIRED), wild type, SEQ ID NO: 34 (Myxococcus stipitatus DSM 14675) (protein)
chain: MKPTLTVIGAGRMGSALIKAFLQSGYTTTVWNRTKAKSEPLAKLGAHLADTVRDAVKRSDIIVVNVLDYDTSDQLLRQDEVTRELRGKLLVQLTSGSPALAREQETWARQHGIDYLDGAIMATPDFIGQAECALLYSGSAALFEKHRAVLNVLGGATSHVGEDVGHASALDSALLFQMWGTLFGTLQALAISRAEGIPLEKTTAFIKLTEPVTQGAVADVLTRVQQNRLTADAQTLASLEAHNVAFQHLLALCEERNIHRGVADAMYSVIREAVKAGHGKDDFAILTRFLK
Work on B1 yielded a Km [1] of 3.56 mM mM and a kcat [1] of 89.8 min-1 min-1.

B2: Myxococcus stipitatus imine reductase (MsIRED) variant MsIRED-s (pLS133_1), N32E/R33V/T34R/K37R, SEQ ID NO: 35 (Myxococcus stipitatus DSM 14675; … (protein)
chain: B1 chain with N32E, R33V, T34R, K37R
Protein B2 has a Km [2] of 19.57 mM mM and a kcat [2] of 78.1 min-1 min-1.

B3: Clostridium beijerinckii alcohol dehydrogenase (CBADH), wild type, SEQ ID NO: 1 (Clostridium beijerinckii) (protein)
chain: MKGFAMLGINKLGWIEKERPVAGSYDAIVRPLAVSPCTSDIHTVFEGALGDRKNMILGHEAVGEVVEVGSEVKDFKPGDRVIVPCTTPDWRSLEVQAGFQQHSNGMLAGWKFSNFKDGVFGEYFHVNDADMNLAILPKDMPLENAVMITDMMTTGFHGAELADIQMGSSVVVIGIGAVGLMGIAGAKLRGAGRIIGVGSRPICVEAAKFYGATDILNYKNGHIVDQVMKLTNGKGVDRVIMAGGGSETLSQAVSMVKPGGIISNINYHGSGDALLIPRVEWGCGMAHKTIKGGLCPGGRLRAEMLRDMVVYNRVDLSKLVTHVYHGFDHIEEALLLMKDKPKDLIKAVVIL
For B3, the Km [3] was 5.80 mM mM and the kcat [3] was 1185.6 min-1 min-1.
